Data reported in US20120045393A1 (priority 2009, published 2012).
Non-standard residues stand in square brackets, D forms with d. Primed or numbered codes have the meaning given here. *: point of attachment. DO3A10CM(3) = metal chelator group attached at the N-terminus (X in table rows); DO3A10CM″ = chelating group at the N-terminus (X in the sequence tables); Bpa = N[C@@H](Cc1ccc(C(=O)c2ccccc2)cc1)C(=O)O; d3Pal = N[C@H](Cc1cccnc1)C(=O)O; DO3A10CM = not defined here; Nicotinoyl = O=C(c1cccnc1)*; Chmgly = not defined here; Apgly = not defined here; Bugly = not defined here; Cegly = not defined here; Etgly = not defined here; Hegly = not defined here; Iegly = not defined here; Ipgly = not defined here; Mpgly = not defined here; Prgly = not defined here; Tdgly = not defined here; Btd = not defined here; azaGly = NNC(=O)O; Sar = CNCC(=O)O

B1: BRU-2437 (peptide)
peptide: XHWSHXWYPX
HELM: PEPTIDE1{[Glp].H.W.S.H.[dK].W.Y.P.[O=C(NN[*:1])[*:2]].[am]}$$$$V2.0
SMILES: NCCCC[C@@H](NC(=O)[C@H](Cc1c[nH]cn1)NC(=O)[C@H](CO)NC(=O)[C@H](Cc1c[nH]c2ccccc12)NC(=O)[C@H](Cc1c[nH]cn1)NC(=O)[C@@H]1CCC(=O)N1)C(=O)N[C@@H](Cc1c[nH]c2ccccc12)C(=O)N[C@@H](Cc1ccc(O)cc1)C(=O)N1CCC[C@H]1C(=O)NNC(N)=O
B2: BRU-3019 (peptide)
peptide: XRWSHXWXP
modifications: not fully specified; DO3A10CM on N-terminus; AA1 Dnal2 (Table 6; Sar in paragraph 138); AA6 Darg; AA8 Bpa4; AA10 Az23po-Dabt14
B3: BRU-3022 (peptide)
peptide: XRWSHXWXP
modifications: not fully specified; DO3A10CM on N-terminus; AA1 Dnal2 (Table 6; Sar in paragraph 138); AA6 Darg; AA8 Bpa4; AA10 Az23po-Da15o3pt
B4: BRU-2989 (peptide)
peptide: XRWSHXWXPG
modifications: DO3A10CM on N-terminus; AA1 Dnal2; AA6 Darg; AA8 Bpa4; C-terminal Gly-Az23(py2)2po-Ap

Molecular target: LHRH binding sites on EFO-27 human ovarian cancer cells (human)
Assay: competition with [125I-Tyr8]BRU-2477 on EFO-27 cells

| EC50 [nM] | fold reduction in binding potency against BRU-2813 [fold] | times lower binding than BRU-2443 [times] | times lesser binding efficacy than BRU-2443 [times] | Binder |
| --- | --- | --- | --- | --- |
| 22600 |  |  |  | {DO3A10CM(3)}-[Sar]HWSH[dK](Nicotinoyl)WYP[azaGly]-NH2 [BRU-2674] |
| 2300 |  |  |  | XRWSHXWXPG (DO3A10CM on N-terminus; AA1 Dnal2; AA6 Darg; AA8 Bpa4; C-terminal Gly-Aprp1h3) [BRU-2987] |
| 14000 |  |  |  | {DO3A10CM(3)}-[Sar]HWSH[dA]W[Bpa]P[azaGly]-NH2 [BRU-2672] |
| 8540 |  |  |  | B1 |
| 1340 |  |  |  | DO3A10CM-G[Mpgly]HWSH[dR]W[Bpa]P[azaGly]-NH2 (reading uncertain) [BRU-2793] |
| 3300 |  |  |  | DO3A10CM-G[Ipgly]HWSH[dR]W[Bpa]P[azaGly]-NH2 (reading uncertain) [BRU-2790] |
| 900 |  |  |  | B2 |
| 2900 |  |  |  | DO3A10CM-G[Chgly]HWSHRW[Bpa]P[azaGly]-NH2 (reading uncertain; also: AA6 Darg prints R) [BRU-2872] |
| 980 |  |  |  | XHWSHXWXPX (DO3A10CM on N-terminus; AA1 Sar; AA6 Darg; AA8 Tbufe4; AA10 azaGly-NH2) [BRU-2634] |
| 13600 |  |  |  | {DO3A10CM″}-[Sar]HWSH[dS]W[Bpa]P[azaGly]-NH2 [BRU-2761] |
| 12300 |  |  |  | {DO3A10CM(3)}-[Sar]HWSH[d3Pal]W[Bpa]P[azaGly]-NH2 [BRU-2673] |
| 5120 |  |  |  | DO3A10CM-G[Etgly]HWSH[dR]W[Bpa]P[azaGly]-NH2 (reading uncertain) [BRU-2789] |
| 12300 |  |  |  | XHWSHXWXPX (DO3A10CM on N-terminus; AA1 Sar; AA6 Darg; AA8 Lys(isp); AA10 azaGly-NH2) [BRU-2675] |
| 1330 |  |  |  | DO3A10CM-G[Hegly]HWSHRW[Bpa]P[azaGly]-NH2 (reading uncertain; also: AA6 Darg prints R) [BRU-2873] |
| 580 | 2 |  |  | XRWSHXWXPX (DO3A10CM on N-terminus; AA1 Mednal2; AA6 Darg; AA8 Bpa4; AA10 azaGly-NH2) [BRU-2965] |
| 710 |  |  |  | B3 |
| 2600 |  | 2.7 |  | XHWSHXWXPX (DO3A10CM on N-terminus; AA1 Sar; AA6 Dharg; AA8 Bpa4; AA10 azaGly-NH2) [BRU-2893] |
| 660 |  |  |  | XRWSHXWXPGX (DO3A10CM on N-terminus; AA1 Dnal2; AA6 Darg; AA8 Bpa4; AA10 Gly-NH2 (amide)) [BRU-3005] |
| 630 |  |  |  | XHWSHXWXPX (DO3A10CM on N-terminus; AA1 Sar; AA6 Darg; AA8 Cha; AA10 azaGly-NH2) [BRU-2718] |

| EC50 [nM] | fold reduction in binding potency against BRU-2813 [fold] | times lower binding than BRU-2443 [times] | times lesser binding efficacy than BRU-2443 [times] | Binder |
| --- | --- | --- | --- | --- |
| 4480 |  |  |  | DO3A10CM-G[Tdgly]HWSHRW[Bpa]P[azaGly]-NH2 (not fully specified (residue 7); reading uncertain; also: AA6 Darg prints R) [BRU-2878] |
| 2140 |  |  |  | XHWSHXWXPX (DO3A10CM on N-terminus; AA1 Sar; AA6 Darg; AA8 Bip; AA10 azaGly-NH2) [BRU-2625] |
| 970 |  |  |  | XRWSHXWXP (DO3A10CM on N-terminus; AA1 Dnal2; AA6 Darg; AA8 Bpa4; AA10 Ae (aminoethane)) [BRU-2981] |
| 1360 |  |  |  | DO3A10CM-[Sar]HWSH[dW]W[Bpa]P[azaGly]-NH2 (reading uncertain) [BRU-2731] |
| 7200 |  |  |  | {DO3A10CM(3)}-[Sar]HWSH[dK](Nicotinoyl)W[Bpa]P[azaGly]-NH2 [BRU-2671] |
| 1130 |  |  |  | B4 |
| 540 |  |  |  | XHWSHXWXPX (DO3A10CM on N-terminus; AA1 Sar; AA6 Darg; AA8 Nal1; AA10 azaGly-NH2) [BRU-2720] |
| 1030 |  |  |  | DO3A10CM-G[Iegly]HWSHRW[Bpa]P[azaGly]-NH2 (not fully specified (residue 7); reading uncertain; also: AA6 Darg prints R) [BRU-2879] |
| 4230 |  |  | 4.5 | DO3A10CM-[Sar]HWSH[Btd]W[Bpa]P[azaGly]-NH2 (reading uncertain) [BRU-3000] |
| 1130 |  |  |  | XRWSHXWXP (DO3A10CM on N-terminus; AA1 Dnal2; AA6 Darg; AA8 Bpa4; AA10 Aprp1h3) [BRU-2982] |
| 1290 |  |  |  | {DO3A10CM″}-G[Mephe]HWSHRW[Bpa]P[azaGly]-NH2 (not fully specified (residue 7)) [BRU-2755] |
| 8700 |  |  |  | DO3A10CM-G[Cegly]HWSHRW[Bpa]P[azaGly]-NH2 (not fully specified (residue 7); reading uncertain; also: AA6 Darg prints R) [BRU-2875] |
| 1300 |  |  |  | DO3A10CM-G[Prgly]HWSH[dR]W[Bpa]P[azaGly]-NH2 (reading uncertain) [BRU-2794] |
| 14200 |  | 15 |  | XHWSHXWXPX (DO3A10CM on N-terminus; AA1 Sar; AA6 Dcit; AA8 Bpa4; AA10 azaGly-NH2) [BRU-2729] |
| 4030 |  |  |  | DO3A10CM-G[Bugly]HWSH[dR]W[Bpa]P[azaGly]-NH2 (reading uncertain) [BRU-2791] |
| 900 |  |  |  | DO3A10CM-G[Chmgly]HWSHRW[Bpa]P[azaGly]-NH2 (not fully specified (residue 7); reading uncertain; also: AA6 Darg prints R) [BRU-2877] |
| 760 |  |  |  | XHWSHXWXPX (DO3A10CM on N-terminus; AA1 Mednal2; AA6 Darg; AA8 Bpa4; AA10 azaGly-NH2) [BRU-3003] |
| 1970 |  |  |  | DO3A10CM-G[Apgly]HWSHRW[Bpa]P[azaGly]-NH2 (not fully specified (residue 7); reading uncertain; also: AA6 Darg prints R) [BRU-2874] |
